Measured values taken from article PMC3347556.

Target: Lys65 (UniProt position 65, ICSVSKQFTCA)
Experiment: kinetics
Details: 25 °C, not stated (0.1 M Tris-HCl buffer), Free enzyme (Vmax/KM profile) with D-Ala-pNA as substrate

Substance: D-aminopeptidase (DAP) (Ochrobactrum anthropi)
- pKa: 7.4
